For one substance, fold increase of α-actinin in the actin bundles with CRP1 added, against without CRP1 results are on record in publication PMC1318456.

This experiment deals with Non-muscle actin (99% pure; 80% β-actin, 20% γ-actin), polymerized (UniProt P60709). The experiment in a line: co-sedimentation; actin filaments first bundled with α-actinin for 30 min at room temperature, CRP1 then added for a further 30 min, 10,000 x g; supernatant and pellet on gel, Gelcode Blue.

In the case of “α-actinin purified from chicken gizzard (from UniProt P05094 1-893) (natural protein)”, the fold increase of α-actinin in the actin bundles with CRP1 added, against without CRP1 was 2 fold.
